Measured values from patent US7727950B2, “Methods and reagents for assaying protein kinase activity” (The University of Dundee, priority 2002, dated 2010).

What was measured:
[1] = tested on: T1, CC(C)C[C@H](NC(=O)[C@H](CCCCN)NC(=O)[C@@H](N)CCCCN)C(=O)N[C@@H](CC(N)=O)C(=O)N[C@@H](CCCNC(=N)N)C(=O)N[C@H](C(=O)N[C@@H](CC(C)C)C(=O)N[C@@H](CO)C(=O)N[C@@H](Cc1ccccc1)C(=O)N[C@@H](C)C(=O)N[C@@H](CCC(=O)O)C(=O)N1CCC[C@H]1C(=O)NCC(=O)O)[C@@H](C)O; assay: Kinetic parameters for peptide phosphorylation, radioactive filter-binding assay; format: biochemical, human; conditions: other: PKBα; Standard Substrate = GRPRTSSFAEG; 30.0 °C
T1 construct: made in house; host or cells: Sf21 insect cells
Description: Apart from the AMP-activated protein kinase (AMPK, a gift from Drs S. Hawley and D. G. Hardie), cGMP-dependent protein kinase (PKG, a generous gift from Drs Susan Lohmann and Ulrich Walter, University of Wurzburg, Germany) and the catalytic subunit of cyclic AMP-dependent protein kinase (PKA, a gift from Dr C. Smythe), which were isolated from rat liver, bovine lung and bovine heart, respectively, all other protein kinases were expressed as either GST-fusion or His-tagged proteins (by a person, a person, Dr A. Paterson or a person, in this Division). The expressed proteins all corresponded to the human sequences apart from the rat Rho-dependent protein kinase (ROCK-II) and rat mitogen-activated protein kinase (MAPK) activated kinase-1a (MAPKAP-K1a, also called RSK). […]
All protein kinase assays were linear with respect to time. […] All papers were subsequently washed a further three times in phosphoric acid, once in acetone, then dried and counted for radioactivity. […] The plates were then washed six times (five min per wash) in PBS, 0.1% Tween 20 and binding of the phospho-specific antibody detected by incubating the plates with peroxidase-conjugated anti-sheep antibodies (Pierce). […] Signals were quantitated on LAS-1000IR software (FujiFilm). […]

[2] = tested on: CC(C)C[C@H](NC(=O)[C@@H](NC(=O)[C@H](CCCNC(=N)N)NC(=O)[C@H](C)NC(=O)[C@@H](N)CCCNC(=N)N)[C@@H](C)O)C(=O)N[C@@H](CO)C(=O)N[C@@H](Cc1ccccc1)C(=O)N[C@@H](C)C(=O)N[C@@H](CCC(=O)O)C(=O)N1CCC[C@H]1C(=O)NCC(=O)O; assay: purified protein, by the assay type; conditions: other: CaMKII; Standard Substrate = MHRQETVDCLK; 30.0 °C
Description: All protein kinase assays were linear with respect to time. […] The assays with the three generic peptides introduced in this example were carried out in the same buffers as follow. Unlabelled or biotinylated substrate peptides were assayed for 10 min at 30° C. in 50 μl incubations, in the presence of 0.1 mM [y^32P]ATP or unlabelled ATP. Radioactive assays were terminated by spotting 40 μl of each incubation on to phosphocellulose paper followed by immersion in 75 mM phosphoric acid. All papers were subsequently washed a further three times in phosphoric acid, once in acetone, then dried and counted for radioactivity. Non-radioactive assays were terminated by the addition of EDTA to a final concentration of 20 mM, then diluted with an equal volume of phosphate-buffered saline (PBS), containing 0.1% Tween 20 and the biotinylated peptides captured by incubation for 60 min on pre-washed, 96 well Streptavidin coated plates (Equilon A/S, Vedbaek, Denmark). […] The plates were then washed six times (five min per wash) in PBS, 0.1% Tween 20 and binding of the phospho-specific antibody detected by incubating the plates with peroxidase-conjugated anti-sheep antibodies (Pierce). […] Signals were quantitated on LAS-1000IR software (FujiFilm).

[3] = tested on: CC(C)C[C@H](NC(=O)[C@H](CCCNC(=N)N)NC(=O)[C@H](CCCNC(=N)N)NC(=O)[C@@H](N)CCCNC(=N)N)C(=O)N[C@@H](CO)C(=O)N[C@@H](Cc1ccccc1)C(=O)N[C@@H](C)C(=O)N[C@@H](CCC(=O)O)C(=O)N1CCC[C@H]1C(=O)NCC(=O)O; assay: purified protein, by the assay type; conditions: other: PKA; Standard Substrate = LRRASLG; 30.0 °C

PKBα (Homo sapiens)
Km [1]: 2 µM

CaMKII (Homo sapiens)
Km [2]: 300 µM

PKA (Bos taurus)
Km [3]: 30 µM
